The source of these data is PMC10123090, “The MksG nuclease is the executing part of the bacterial plasmid defense system MksBEFG” (Nucleic Acids Research, 2023).

For one series, the target named is T1, MksBEF (Corynebacterium glutamicum, UniProt Q8NLY2).
T1 construct: gene Cgl2804; with Kleisin subunit MksF (MukF/JetA homologue); Kite subunit MksE (MukE/JetB homologue)
The experiment in a line: EnzChek phosphate release. In kind it is biochemical. To be noted: 2 mM Mg-ATP, 30 °C, with or without 50 ng/ul plasmid DNA (pBHK18).

Series [1] has as its target MksB (His10-MksB), condensin-like ATPase subunit of the Corynebacterium glutamicum MksBEFG complex (Corynebacterium glutamicum) (UniProt Q8NLY2). Nature of the series: BLI; BLItz, streptavidin biosensors; biotinylated bait immobilised (MksE 25 ug/ml, MksB 50 ug/ml or MksG 100 ug/ml), MksF as analyte 1-5 uM; BLI buffer 10 mM Na2HPO4, 137 mM NaCl, 2.7 mM KCl, 1.8 mM KH2PO4, 10 mM MgCl2, 5% glycerol, pH 7.4; 1:1 binding model. In general terms: BLI is a label-free optical method that tracks binding on a fibre tip over time.

Series [2] addresses MksE (His6-MksE), kite subunit of the Corynebacterium glutamicum MksBEFG complex (Corynebacterium glutamicum) (UniProt Q8NLY1). The series is described as above.
Series [3] concerns the molecule itself. The experiment in a line: crystal structure; X-ray, 4.6 A, solved by molecular replacement with AlphaFold2 domain models; crystals in 10% PEG 6K, 30% ethanol, 10 mM sodium acetate.
In series [4] the target is T2, MksF (His6-MksF), kleisin subunit of the Corynebacterium glutamicum MksBEFG complex (Corynebacterium glutamicum, UniProt Q8NLY0 1-495).
T2 construct: MksF of Corynebacterium glutamicum, gene mksF (cg3106), amplified from genomic DNA and ligated NdeI/BamHI into pET28a (plasmid pMG001); Analyte in the BLI experiments with constants; biotinylated (EZ-Link NHS-PEG4, ratio 3:1) where used as bait; Also purified together with MksE; also called cg3106; source: E. coli BL21 (DE3) pLysS, purified (Ni-NTA, SEC)
T2 sequence (looked up): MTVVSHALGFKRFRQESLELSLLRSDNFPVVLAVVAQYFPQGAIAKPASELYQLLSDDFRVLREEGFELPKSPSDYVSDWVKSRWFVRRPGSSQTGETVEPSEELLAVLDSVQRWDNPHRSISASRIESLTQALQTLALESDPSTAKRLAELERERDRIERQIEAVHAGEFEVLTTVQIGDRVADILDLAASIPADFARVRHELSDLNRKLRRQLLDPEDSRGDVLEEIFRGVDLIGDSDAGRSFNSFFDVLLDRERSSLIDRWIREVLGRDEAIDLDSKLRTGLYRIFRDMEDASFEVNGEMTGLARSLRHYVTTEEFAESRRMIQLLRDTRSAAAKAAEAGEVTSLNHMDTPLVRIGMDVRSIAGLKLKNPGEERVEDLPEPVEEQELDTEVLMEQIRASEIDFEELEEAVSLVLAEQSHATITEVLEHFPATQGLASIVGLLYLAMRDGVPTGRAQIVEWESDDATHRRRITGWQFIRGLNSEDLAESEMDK
The experiment in a line: BLI; BLItz, streptavidin biosensors; biotinylated bait immobilised (MksE 25 ug/ml, MksB 50 ug/ml or MksG 100 ug/ml), MksF as analyte 1-5 uM; BLI buffer 10 mM Na2HPO4, 137 mM NaCl, 2.7 mM KCl, 1.8 mM KH2PO4, 10 mM MgCl2, 5% glycerol, pH 7.4; 1:1 binding model. Particulars: both partners purified.

MksE (His6-MksE), kite subunit of the Corynebacterium glutamicum MksBEFG complex (Corynebacterium glutamicum), sequence (Q8NLY1 entry or part of it, one chain of several): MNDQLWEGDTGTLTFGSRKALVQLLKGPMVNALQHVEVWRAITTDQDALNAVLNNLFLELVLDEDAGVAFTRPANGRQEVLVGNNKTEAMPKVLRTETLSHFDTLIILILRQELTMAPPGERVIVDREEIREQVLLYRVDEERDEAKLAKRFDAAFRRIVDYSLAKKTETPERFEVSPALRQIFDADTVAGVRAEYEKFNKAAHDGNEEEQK
MksB (His10-MksB), condensin-like ATPase subunit of the Corynebacterium glutamicum MksBEFG complex (Corynebacterium glutamicum), sequence (Q8NLY2 entry or part of it, one chain of several): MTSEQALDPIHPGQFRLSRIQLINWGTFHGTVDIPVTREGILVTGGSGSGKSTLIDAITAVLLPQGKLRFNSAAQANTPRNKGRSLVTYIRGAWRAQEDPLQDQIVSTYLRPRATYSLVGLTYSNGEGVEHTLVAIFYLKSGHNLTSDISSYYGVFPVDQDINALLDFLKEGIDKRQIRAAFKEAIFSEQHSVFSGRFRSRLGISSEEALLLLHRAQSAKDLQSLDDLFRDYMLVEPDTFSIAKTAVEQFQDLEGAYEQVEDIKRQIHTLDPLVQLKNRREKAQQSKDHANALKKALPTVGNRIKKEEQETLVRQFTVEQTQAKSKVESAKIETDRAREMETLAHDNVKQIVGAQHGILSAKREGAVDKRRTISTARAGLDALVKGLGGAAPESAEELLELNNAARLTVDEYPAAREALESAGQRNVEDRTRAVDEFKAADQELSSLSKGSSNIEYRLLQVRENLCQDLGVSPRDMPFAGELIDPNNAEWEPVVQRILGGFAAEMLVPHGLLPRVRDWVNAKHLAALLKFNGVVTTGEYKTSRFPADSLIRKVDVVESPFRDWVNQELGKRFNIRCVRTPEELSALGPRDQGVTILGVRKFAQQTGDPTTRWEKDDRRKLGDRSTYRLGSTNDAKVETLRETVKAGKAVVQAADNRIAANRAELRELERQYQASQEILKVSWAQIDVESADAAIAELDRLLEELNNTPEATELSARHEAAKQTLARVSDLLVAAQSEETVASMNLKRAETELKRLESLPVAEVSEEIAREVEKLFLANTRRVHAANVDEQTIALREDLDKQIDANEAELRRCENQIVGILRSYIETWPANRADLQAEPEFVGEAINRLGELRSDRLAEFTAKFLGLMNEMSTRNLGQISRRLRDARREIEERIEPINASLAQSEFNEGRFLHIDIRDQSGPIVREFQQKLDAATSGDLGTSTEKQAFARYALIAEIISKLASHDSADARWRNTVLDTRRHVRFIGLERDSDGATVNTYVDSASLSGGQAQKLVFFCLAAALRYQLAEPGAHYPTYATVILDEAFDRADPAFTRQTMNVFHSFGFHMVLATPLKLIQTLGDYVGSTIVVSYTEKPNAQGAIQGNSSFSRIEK
T1 sequence (Q8NLY2 entry or part of it, one chain of several): as above
T1 sequence (Q8NLY1 entry or part of it, one chain of several, further chain): as the sequence (Q8NLY1 entry or part of it, one chain of several) above

Regarding `Nc1ncnc2c1ncn2[C@@H]1O[C@H](COP(=O)(O)OP(=O)(O)OP(=O)(O)O)[C@@H](O)[C@H]1O` [ATP], the EnzChek phosphate release entry on MksBEF is “kleisin subunit MksF and the kite subunit MksE stimulated the ATPase activity of MksB”.
As a reminder, the Kd is a measure of binding affinity in units of concentration. By koff is commonly meant a measure of how fast the partners let go of each other. A lower koff goes with a long-lived complex. In general, kon refers to a measure of how fast the partners come together. The low end stands for slow association, the high end for fast association. In series [1], “MksF (His6-MksF), kleisin subunit of the Corynebacterium glutamicum MksBEFG complex (from UniProt Q8NLY0 1-495) (natural protein)” had a Kd of 4.94 µM, a koff of 0.138 s⁻¹ and a kon of 27800 M⁻¹ s⁻¹. In series [2], the Kd was determined as 2.17 µM, the koff was 0.16 s⁻¹ and the kon turned out to be 74200 M⁻¹ s⁻¹.

B1: MksG, 6xHis-SUMO-tagged construct for crystallization (enzyme, Corynebacterium glutamicum)
chain: MPLFIDDALHRSKKYFHAHLSELLLGEFAGLSLPLHPPTAAKAAADIDATREFIRQWEGRDDVEYAIRNWSPVGLGKTEVPVRLTLNTTEELVVFAQVEDEWSSLHERFSQLSGFTAEVVAKHVSLWRSLSNDDLSKAVLVVDWFLKHPNSGLLKRAVAVEGVHTKWLENHRVLIETLVADKRGEPGRADLGLGDAEARVRLRFHSVDAPAGLTDIEVPLSNLCELQEPQVILMVENLDSFLALPTWPGVTIAWGAGYRAVDIVRGPYFSNGRLLYWGDLDLDGFKILDGVRSHVPHTESVLMNSETVSRWRYLGVADREFKAESFDNLHDFESDALDLLITDGELRIEQERIRLDVAVEEIEKVIRG
notes: MksG of Corynebacterium glutamicum (cg3103), amplified from pMG003 and subcloned into a pET28 derivative with an N-terminal 6xHis-SUMO tag; The methods tell of no cleavage of the 6xHis-SUMO tag before crystallization; also called 6xHis-SUMO-MksG; source: E. coli BL21 C41, purified (Ni-NTA, SEC)
As a reminder, the stoichiometry N is a count of units in the complex or per binding partner. With B1, the “stoichiometry N” value in series [3] came to 2.

B2: MksG (His6-MksG), nuclease subunit of the Corynebacterium glutamicum MksBEFG complex (enzyme)
chain: B1 chain
notes: MksG of Corynebacterium glutamicum, gene mksG (cg3103), amplified from genomic DNA and ligated NdeI/BamHI into pET28a (plasmid pMG003); Biotinylated (EZ-Link NHS-PEG4, ratio 3:1) where used as bait in BLI; The methods speak of 'dimeric MksG'; also called cg3103; source: E. coli BL21 (DE3) pLysS, purified (Ni-NTA, SEC)
Regarding B2, in series [4], binding was characterised by a dissociation constant (Kd) of 6 µM, the koff was 0.136 s⁻¹ and the kon turned out to be 22500 M⁻¹ s⁻¹.
